Measurements reported in US20170253656A1 (SUTRO BIOPHARMA, published 2017).
Residue numbers refer to the chain shown, from its start.

T1: hu-CD74 antigen (R&D SYSTEMS catalog #3590-CD-050) (human, UniProt P04233-2 73-232, limits assumed)
T1 construct: Bought antigen; also called rhCD74; human CD74
T1 sequence (looked up): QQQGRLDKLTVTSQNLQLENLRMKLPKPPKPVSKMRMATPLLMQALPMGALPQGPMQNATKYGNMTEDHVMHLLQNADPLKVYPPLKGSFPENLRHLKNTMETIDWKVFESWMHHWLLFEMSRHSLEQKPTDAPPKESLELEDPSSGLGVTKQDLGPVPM

B1: 1275-G02 light chain paired with HC 1251-F07 (SEQ ID NO: 311) (antibody, human IgG1, V domains shown)
VH: QVQLVESGGGVVQPGRSLRLSCAASGFTFSSHGMHWVRQAPDKGLEWVAVIWDDGSNEVYADSVKGRFTISRDNSKNTLYLQMNSLRAEDTAVYYCARGGTRIRGLRYGTDVWGQGTTVTVSS
VL: DIQMTQSPSSLSASVGDRVTITCRASQGLGSFLAWYQQKPEKAPKSLIYLGNLLQIGVPSRFSGSGSGTDFTLTISSLQPEDFATYYCQQYNAYPLTFGGGTKVEIK
B2: 1251-A02 heavy chain paired with VL SEQ ID NO: 272 (antibody, V domains shown)
VH: QVQLVESGGGVVQPGRSLRLSCAASGFAFSDHGMHWVRQAPDKGLEWVAVIWYDGSHKIYADSVKGRFTISRDNSKNTLYLQMNSLRAEDTAVYYCARGGSLAGGAVYGTDVWGQGTTVTVSS
VL: B1 VL with L29I, G30S, F32W, L50A, G51A, N52S, L53S, I56S, A93S
notes: Selected from a Fab library; VH3-33 / Vk1-12
B3: 1251-A03 heavy chain paired with VL SEQ ID NO: 272 (antibody, V domains shown)
VH: B2 VH
VL: B1 VL with L29I, G30S, F32W, L50A, G51A, N52S, L53S, I56S, A93S
B4: 1251-A06 heavy chain paired with VL SEQ ID NO: 272 (antibody, V domains shown)
VH: B1 VH with T28D, H32Y, N57D, E58R, V59Y, I103V, R104L, L106A, R107I, Y108H
VL: B1 VL with L29I, G30S, F32W, L50A, G51A, N52S, L53S, I56S, A93S
B5: 1251-D02 heavy chain paired with VL SEQ ID NO: 272 (antibody, V domains shown)
VH: B1 VH with T28S, S30A, N57D, E58R, V59Y, I103V, R104L, L106A, R107I, Y108H
VL: B1 VL with L29I, G30S, F32W, L50A, G51A, N52S, L53S, I56S, A93S
B6: 1251-B09 heavy chain paired with VL SEQ ID NO: 272 (antibody, V domains shown)
VH: QVQLVESGGGVVQPGRSLRLSCAASGFNFSDYGMHWVRQAPDKGLEWVAVTWYDGSREYYADSVKGRFTISRDNSKNTLYLQMNSLRAEDTAVYYCARGGTLVHGALYGNDVWGQGTTVTVSS
VL: B1 VL with L29I, G30S, F32W, L50A, G51A, N52S, L53S, I56S, A93S
B7: 1251-D09 heavy chain paired with VL SEQ ID NO: 272 (antibody, V domains shown)
VH: QVQLVESGGGVVQPGRSLRLSCAASGFSFSSYGMHWVRQAPDKGLEWVAVIWYDASIRKYAGSVKGRFTISRDNSKNTLYLQMNSLRAEDTAVYYCARGGTVERGAIYGTDVWGQGTTVTVSS
VL: B1 VL with L29I, G30S, F32W, L50A, G51A, N52S, L53S, I56S, A93S
B8: 1251-D06 heavy chain paired with VL SEQ ID NO: 272 (antibody, V domains shown)
VH: B6 VH with N28S, S30G, D31S, T51V, R57K, E58T, Y59I, H104R, L107V, N110L
VL: B1 VL with L29I, G30S, F32W, L50A, G51A, N52S, L53S, I56S, A93S
B9: 1251-F07 heavy chain paired with VL SEQ ID NO: 272 (antibody, V domains shown)
VH: B1 VH
VL: B1 VL with L29I, G30S, F32W, L50A, G51A, N52S, L53S, I56S, A93S
B10: 1251-G02 heavy chain paired with VL SEQ ID NO: 272 (antibody, V domains shown)
VH: B6 VH with N28T, D31S, T51I, Y53H, R57K, E58D, T101Q, V103D, L107I, N110L
VL: B1 VL with L29I, G30S, F32W, L50A, G51A, N52S, L53S, I56S, A93S
B11: 1251-B08 heavy chain paired with VL SEQ ID NO: 272 (antibody, V domains shown)
VH: B6 VH with T51I, R57I, E58S, L102V, V103E, L107V, N110T, T117A
VL: B1 VL with L29I, G30S, F32W, L50A, G51A, N52S, L53S, I56S, A93S
B12: HC 1251_B08 (g)/LC 1337_A10 (wt) (antibody, human IgG1, kappa, V domains shown)
VH: B6 VH with D42G, T51I, R57I, E58S, L102V, V103E, L107V, N110T
VL: DIQMTQSPSSLSASVGDRVTITCRASQGISSWVAWYQQKPEKAPKSLIYGSSRLQSGVPSRFSGSGSGTDFTLTISSLQPEDFATYYCQQYNTYPLTFGGGTKVEIKR
notes: IgG format
B13: HC 1251_B08 (g)/LC 1337_A10 (g) (antibody, human IgG1, kappa, V domains shown)
VH: B6 VH with D42G, T51I, R57I, E58S, L102V, V103E, L107V, N110T
VL: B12 VL with L11V, E41G, S46L
notes: IgG format
B14: HC 1251_B08 (g)/LC 1275_C10 (wt) (antibody, human IgG1, kappa, V domains shown)
VH: B6 VH with D42G, T51I, R57I, E58S, L102V, V103E, L107V, N110T
VL: B12 VL with I29V, V33L, G50S, S51A, S52R, R53Y, T93L
notes: IgG format
B15: HC 1251_B08 (g)/LC 1337_A09 (g) (antibody, human IgG1, kappa, V domains shown)
VH: B6 VH with D42G, T51I, R57I, E58S, L102V, V103E, L107V, N110T
VL: B12 VL with L11V, S30G, V33L, E41G, S46L, G50A, S51A, S52D, N92H
notes: IgG format
B16: HC 1251_B08 (g)/LC 1275_C10 (g) (antibody, human IgG1, kappa, V domains shown)
VH: B6 VH with D42G, T51I, R57I, E58S, L102V, V103E, L107V, N110T
VL: B12 VL with L11V, I29V, V33L, E41G, S46L, G50S, S51A, S52R, R53Y, T93L
notes: IgG format
B17: HC 1251_B08 (g)/LC 1337_A07 (g) (antibody, human IgG1, kappa, V domains shown)
VH: B6 VH with D42G, T51I, R57I, E58S, L102V, V103E, L107V, N110T
VL: B12 VL with L11V, E41G, S46L, S51A, N92H
notes: IgG format
B18: HC 1251_B08 (g)/LC 1337_A09 (wt) (antibody, human IgG1, kappa, V domains shown)
VH: B6 VH with D42G, T51I, R57I, E58S, L102V, V103E, L107V, N110T
VL: B12 VL with S30G, V33L, G50A, S51A, S52D, N92H
notes: IgG format
B19: HC 1251_B08 (wt)/LC 1337_A07 (wt) (antibody, human IgG1, kappa, V domains shown)
VH: B6 VH with T51I, R57I, E58S, L102V, V103E, L107V, N110T, T117A
VL: B12 VL with S51A, N92H
notes: IgG format
B20: HC 1251_B08 (wt)/LC 1337_A07 (g) (antibody, human IgG1, kappa, V domains shown)
VH: B6 VH with T51I, R57I, E58S, L102V, V103E, L107V, N110T, T117A
VL: B12 VL with L11V, E41G, S46L, S51A, N92H
notes: IgG format
B21: HC 1251_B08 (wt)/LC 1275_C10 (wt) (antibody, human IgG1, kappa, V domains shown)
VH: B6 VH with T51I, R57I, E58S, L102V, V103E, L107V, N110T, T117A
VL: B12 VL with I29V, V33L, G50S, S51A, S52R, R53Y, T93L
notes: IgG format
B22: HC 1251_B08 (wt)/LC 1337_A09 (wt) (antibody, human IgG1, kappa, V domains shown)
VH: B6 VH with T51I, R57I, E58S, L102V, V103E, L107V, N110T, T117A
VL: B12 VL with S30G, V33L, G50A, S51A, S52D, N92H
notes: IgG format
B23: HC 1251_B08 (wt)/LC 1275_C10 (g) (antibody, human IgG1, kappa, V domains shown)
VH: B6 VH with T51I, R57I, E58S, L102V, V103E, L107V, N110T, T117A
VL: B12 VL with L11V, I29V, V33L, E41G, S46L, G50S, S51A, S52R, R53Y, T93L
notes: IgG format
B24: HC 1251_B08 (wt)/LC 1337_A10 (g) (antibody, human IgG1, kappa, V domains shown)
VH: B6 VH with T51I, R57I, E58S, L102V, V103E, L107V, N110T, T117A
VL: B12 VL with L11V, E41G, S46L
notes: IgG format
B25: HC 1251_B08 (wt)/LC 1337_A09 (g) (antibody, human IgG1, kappa, V domains shown)
VH: B6 VH with T51I, R57I, E58S, L102V, V103E, L107V, N110T, T117A
VL: B12 VL with L11V, S30G, V33L, E41G, S46L, G50A, S51A, S52D, N92H
notes: IgG format
B26: HC 1251_B08 (wt)/LC 1337_A10 (wt) (antibody, human IgG1, kappa, V domains shown)
VH: B6 VH with T51I, R57I, E58S, L102V, V103E, L107V, N110T, T117A
VL: B12 VL
notes: IgG format

Columns and labels:
[1] = biological target: T1, hu-CD74 antigen (R&D SYSTEMS catalog …); assay: SPR (Biacore T200), captured on anti-human Fc, rhCD74 analyte
Experimental: (§1) Kinetic binding experiments were performed at 25° C. using 1×HBS-EP+buffer. Kinetic data was collected by injecting test and control antibodies at concentrations of 10, 5 and 2.5 μg/mL for 12 s at a flow rate of 10 μl/min on flow cells 2, 3 and 4 respectively, followed by a buffer wash for 30 s at the same flow rate. Kinetic characterization of antibody samples was carried out with 8 concentrations of a 1:2 dilution series of rhCD74 antigen (R&D Systems) and 2 injections of 0 nM antigen (buffer only). […] Between each ligand capture and analyte binding cycle, regeneration was carried out using 2 injections of 3M MgCl₂ for 30 seconds at 30 μL/min, followed by a 30 second buffer wash step.

[2] = biological target: T1, hu-CD74 antigen (R&D SYSTEMS catalog …); assay: SPR (Biacore T200), IgG captured on anti-human Fc, rhCD74 analyte
Experimental: as §1

Row | Binder | Kd [1] | koff [1] | kon [1] | Kd [2] | koff [2] | kon [2]
1 | B1 | 0.528 nM | 0.000297 s⁻¹ | 563000 M⁻¹ s⁻¹ |  |  | 
2 | B2 | 0.2 nM | 0.000302 s⁻¹ | 1.51e+06 M⁻¹ s⁻¹ |  |  | 
3 | B3 | 0.184 nM | 0.000305 s⁻¹ | 1.65e+06 M⁻¹ s⁻¹ |  |  | 
4 | B4 | 0.114 nM | 9.99e-05 s⁻¹ | 873000 M⁻¹ s⁻¹ |  |  | 
5 | B5 | 0.189 nM | 0.000167 s⁻¹ | 885000 M⁻¹ s⁻¹ |  |  | 
6 | B6 | 0.225 nM | 0.000218 s⁻¹ | 968000 M⁻¹ s⁻¹ |  |  | 
7 | B7 | 0.139 nM | 0.000137 s⁻¹ | 989000 M⁻¹ s⁻¹ |  |  | 
8 | B8 | 0.0752 nM | 0.000173 s⁻¹ | 2.3e+06 M⁻¹ s⁻¹ |  |  | 
9 | B9 | 0.185 nM | 0.000125 s⁻¹ | 678000 M⁻¹ s⁻¹ |  |  | 
10 | B10 | 0.651 nM | 0.00084 s⁻¹ | 1.29e+06 M⁻¹ s⁻¹ |  |  | 
11 | B11 | 0.224 nM | 0.000106 s⁻¹ | 475000 M⁻¹ s⁻¹ |  |  | 
12 | B12 |  |  |  | 0.385 nM | 0.00012 s⁻¹ | 312000 M⁻¹ s⁻¹
13 | B13 |  |  |  | 0.254 nM | 9.97e-05 s⁻¹ | 392000 M⁻¹ s⁻¹
14 | B14 |  |  |  | 0.862 nM | 0.000155 s⁻¹ | 180000 M⁻¹ s⁻¹
15 | B15 |  |  |  | 0.252 nM | 7.77e-05 s⁻¹ | 309000 M⁻¹ s⁻¹
16 | B16 |  |  |  | 0.332 nM | 0.000102 s⁻¹ | 306000 M⁻¹ s⁻¹
17 | B17 |  |  |  | 0.239 nM | 7.76e-05 s⁻¹ | 325000 M⁻¹ s⁻¹
18 | B18 |  |  |  | 0.64 nM | 0.000106 s⁻¹ | 166000 M⁻¹ s⁻¹
19 | B19 |  |  |  | 0.211 nM | 8.01e-05 s⁻¹ | 379000 M⁻¹ s⁻¹
20 | B20 |  |  |  | 0.611 nM | 0.000142 s⁻¹ | 232000 M⁻¹ s⁻¹
21 | B21 |  |  |  | 0.191 nM | 0.000119 s⁻¹ | 623000 M⁻¹ s⁻¹
22 | B22 |  |  |  | 0.108 nM | 0.000116 s⁻¹ | 1.07e+06 M⁻¹ s⁻¹
23 | B23 |  |  |  | 0.437 nM | 0.000124 s⁻¹ | 284000 M⁻¹ s⁻¹
24 | B24 |  |  |  | 0.957 nM | 0.000183 s⁻¹ | 191000 M⁻¹ s⁻¹
25 | B25 |  |  |  | 0.347 nM | 0.000115 s⁻¹ | 332000 M⁻¹ s⁻¹
26 | B26 |  |  |  | 0.235 nM | 0.000115 s⁻¹ | 491000 M⁻¹ s⁻¹
